Data as given in the supplement of paper PMC9112550, “Optimization of the antimicrobial peptide Bac7 by deep mutational scanning” (BMC Biology, 2022).

Each sequence was assayed on Escherichia coli TOP10 (assay: shrunken log2 fold change of peptide-encoding DNA abundance (4.5 h post-induction vs induction); higher = less antimicrobial activity (less host growth inhibition)). Conditions: time post-induction: 4.5 h; library: site-saturation at positions 5, 18, 19, 20.
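Also: peptides expressed intracellularly from a pBAD plasmid library in pooled LB shake-flask culture, induced with 0.3% L-arabinose, DNA abundance read by NGS, three biological replicates, DESeq2 with apeglm shrinkage.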

Row | Sequence | shrunken log2 fold change
1 | RRIRGRPPRLPRPRPRPGMPPRP | 0.406
2 | RRIRMRPPRLPRPRPRPVGNPRP | 0.0176
3 | RRIRNRPPRLPRPRPRPCWMPRP | -0.18
4 | RRIRSRPPRLPRPRPRPECRPRP | 0.266
5 | RRIRSRPPRLPRPRPRPKHLPRP | -0.466
6 | RRIRPRPPRLPRPRPRPTTTPRP | 0.142
7 | RRIRLRPPRLPRPRPRPSDYPRP | -0.106
8 | RRIRHRPPRLPRPRPRPHSIPRP | -0.318
9 | RRIRDRPPRLPRPRPRPAYHPRP | -0.263
10 | RRIRNRPPRLPRPRPRPLWVPRP | -0.0871
11 | RRIRMRPPRLPRPRPRPHIMPRP | -0.422
12 | RRIRMRPPRLPRPRPRPNPGPRP | 0.0378
13 | RRIRNRPPRLPRPRPRPEKPPRP | -0.233
14 | RRIRIRPPRLPRPRPRPITCPRP | -0.378
15 | RRIRFRPPRLPRPRPRPELCPRP | 0.193
16 | RRIRYRPPRLPRPRPRPDYMPRP | -0.761
17 | RRIRLRPPRLPRPRPRPWLDPRP | -0.233
18 | RRIRLRPPRLPRPRPRPWFIPRP | -0.738
19 | RRIRYRPPRLPRPRPRPWLCPRP | -0.0909
20 | RRIRVRPPRLPRPRPRPRHHPRP | -0.0962
21 | RRIRNRPPRLPRPRPRPLCRPRP | -0.372
22 | RRIRSRPPRLPRPRPRPVKSPRP | -0.127
23 | RRIRHRPPRLPRPRPRPDYNPRP | -0.901
24 | RRIRSRPPRLPRPRPRPYIPPRP | -1.28
25 | RRIRIRPPRLPRPRPRPQSRPRP | -0.0532

Row | Sequence | shrunken log2 fold change
26 | RRIRGRPPRLPRPRPRPGEIPRP | 0.727
27 | RRIRGRPPRLPRPRPRPEQTPRP | 0.388
28 | RRIRSRPPRLPRPRPRPSSCPRP | -0.271
29 | RRIRTRPPRLPRPRPRPYYVPRP | -1.13
30 | RRIRERPPRLPRPRPRPCMCPRP | -1.03
31 | RRIRVRPPRLPRPRPRPLSCPRP | -0.307
32 | RRIRERPPRLPRPRPRPTLSPRP | 0.0115
33 | RRIRRRPPRLPRPRPRPYKVPRP | -0.193
34 | RRIRHRPPRLPRPRPRPDHCPRP | 0.0278
35 | RRIRLRPPRLPRPRPRPHEDPRP | -0.682
36 | RRIRRRPPRLPRPRPRPHIGPRP | -0.155
37 | RRIRRRPPRLPRPRPRPPECPRP | 0.222
38 | RRIRHRPPRLPRPRPRPSQSPRP | -0.22
39 | RRIRQRPPRLPRPRPRPIPTPRP | -0.0272
40 | RRIRRRPPRLPRPRPRPICDPRP | 0.309
41 | RRIRGRPPRLPRPRPRPKMYPRP | 0.107
42 | RRIRPRPPRLPRPRPRPEWFPRP | 0.341
43 | RRIRMRPPRLPRPRPRPYTLPRP | -0.274
44 | RRIRARPPRLPRPRPRPNGWPRP | 0.401
45 | RRIRDRPPRLPRPRPRPAFAPRP | 0.928
46 | RRIRMRPPRLPRPRPRPNHTPRP | -0.213
47 | RRIRTRPPRLPRPRPRPSLNPRP | -0.555
48 | RRIRKRPPRLPRPRPRPYISPRP | -0.0238
49 | RRIRHRPPRLPRPRPRPYGMPRP | -0.0262
50 | RRIRHRPPRLPRPRPRPNAIPRP | 0.0158

Row | Sequence | shrunken log2 fold change
51 | RRIRARPPRLPRPRPRPSNDPRP | -0.213
52 | RRIRTRPPRLPRPRPRPNWTPRP | 0.00155
53 | RRIRMRPPRLPRPRPRPKAQPRP | 1.72
54 | RRIRGRPPRLPRPRPRPPVTPRP | 0.728
55 | RRIRYRPPRLPRPRPRPMCPPRP | -0.217
56 | RRIRARPPRLPRPRPRPAKNPRP | 0.312
57 | RRIRPRPPRLPRPRPRPEKWPRP | 0.0413
58 | RRIRYRPPRLPRPRPRPCKQPRP | 0.00515
59 | RRIRERPPRLPRPRPRPGKIPRP | 0.139
60 | RRIRFRPPRLPRPRPRPISDPRP | 0.0114
61 | RRIRKRPPRLPRPRPRPEPVPRP | 0.0885
62 | RRIRIRPPRLPRPRPRPSQDPRP | -0.31
63 | RRIRYRPPRLPRPRPRPPGKPRP | 0.157
64 | RRIRDRPPRLPRPRPRPRWQPRP | 0.0899
65 | RRIRYRPPRLPRPRPRPELGPRP | -0.00146
66 | RRIRHRPPRLPRPRPRPKVWPRP | 0.331
67 | RRIRFRPPRLPRPRPRPEKKPRP | 0.0265
68 | RRIRFRPPRLPRPRPRPQGSPRP | -0.0076
69 | RRIRRRPPRLPRPRPRPVNTPRP | -0.0567
70 | RRIRRRPPRLPRPRPRPYWYPRP | -0.423
71 | RRIRQRPPRLPRPRPRPLPKPRP | -0.226
72 | RRIRKRPPRLPRPRPRPIWAPRP | -0.0352
73 | RRIRIRPPRLPRPRPRPHPTPRP | -0.216
74 | RRIRERPPRLPRPRPRPRLKPRP | -0.0205
75 | RRIRLRPPRLPRPRPRPHKGPRP | -0.0262

Row | Sequence | shrunken log2 fold change
76 | RRIRKRPPRLPRPRPRPTYDPRP | -0.0829
77 | RRIRQRPPRLPRPRPRPKCCPRP | -0.113
78 | RRIRERPPRLPRPRPRPMKNPRP | -0.22
79 | RRIRNRPPRLPRPRPRPHLRPRP | -0.447
80 | RRIRNRPPRLPRPRPRPHGNPRP | -0.189
81 | RRIRWRPPRLPRPRPRPQDKPRP | -0.208
82 | RRIRHRPPRLPRPRPRPTINPRP | -0.459
83 | RRIRARPPRLPRPRPRPLAPPRP | 0.619
84 | RRIRDRPPRLPRPRPRPENYPRP | 0.0528
85 | RRIRSRPPRLPRPRPRPEYKPRP | 0.0361
86 | RRIRCRPPRLPRPRPRPHRQPRP | -0.19
87 | RRIRFRPPRLPRPRPRPFKFPRP | -0.107
88 | RRIRVRPPRLPRPRPRPLMIPRP | -0.361
89 | RRIRHRPPRLPRPRPRPIKLPRP | -0.118
90 | RRIRARPPRLPRPRPRPWWEPRP | 0.37
91 | RRIRERPPRLPRPRPRPQTNPRP | -0.554
92 | RRIRQRPPRLPRPRPRPTKFPRP | -0.203
93 | RRIRNRPPRLPRPRPRPDVSPRP | -0.0754
94 | RRIRNRPPRLPRPRPRPEYHPRP | 0.0524
95 | RRIRIRPPRLPRPRPRPCSGPRP | -0.852
96 | RRIRWRPPRLPRPRPRPCDHPRP | -0.00122
97 | RRIRQRPPRLPRPRPRPYEEPRP | -0.434
98 | RRIRTRPPRLPRPRPRPKVRPRP | 0.0294
99 | RRIRRRPPRLPRPRPRPCDGPRP | 0.0965
100 | RRIRQRPPRLPRPRPRPARLPRP | 0.0512

Row | Sequence | shrunken log2 fold change
101 | RRIRWRPPRLPRPRPRPPGCPRP | 0.975
102 | RRIRDRPPRLPRPRPRPYFTPRP | -0.573
103 | RRIRQRPPRLPRPRPRPCESPRP | -0.0107
104 | RRIRERPPRLPRPRPRPFDHPRP | 0.0195
105 | RRIRYRPPRLPRPRPRPGYKPRP | -0.978
106 | RRIRERPPRLPRPRPRPTLDPRP | 0.149
107 | RRIRYRPPRLPRPRPRPYYVPRP | 0.0372
108 | RRIRCRPPRLPRPRPRPKISPRP | -0.712
109 | RRIRYRPPRLPRPRPRPGDIPRP | -0.0107
110 | RRIRRRPPRLPRPRPRPEQHPRP | 0.592
111 | RRIRIRPPRLPRPRPRPHAMPRP | -0.125
112 | RRIRIRPPRLPRPRPRPNYRPRP | -0.00601
113 | RRIRQRPPRLPRPRPRPPTGPRP | 0.0124
114 | RRIRWRPPRLPRPRPRPDRSPRP | 0.0405
115 | RRIRWRPPRLPRPRPRPEGSPRP | 0.754
116 | RRIRARPPRLPRPRPRPYPIPRP | -0.249
117 | RRIRRRPPRLPRPRPRPLAHPRP | 0.223
118 | RRIRCRPPRLPRPRPRPTNNPRP | -0.619
119 | RRIRPRPPRLPRPRPRPNWLPRP | 0.124
120 | RRIRRRPPRLPRPRPRPTHGPRP | 1.37
121 | RRIRPRPPRLPRPRPRPFEHPRP | 0.0626
122 | RRIRGRPPRLPRPRPRPLKIPRP | 0.365
123 | RRIRARPPRLPRPRPRPMWQPRP | -0.00908
124 | RRIRQRPPRLPRPRPRPQHMPRP | 0.0284
125 | RRIRKRPPRLPRPRPRPTHPPRP | 0.932

Row | Sequence | shrunken log2 fold change
126 | RRIRMRPPRLPRPRPRPYIDPRP | -0.227
127 | RRIRCRPPRLPRPRPRPKVMPRP | -0.184
128 | RRIRRRPPRLPRPRPRPVDAPRP | 0.804
129 | RRIRGRPPRLPRPRPRPSPRPRP | 0.927
130 | RRIRHRPPRLPRPRPRPAWCPRP | 0.081
131 | RRIRTRPPRLPRPRPRPPGIPRP | 0.264
132 | RRIRWRPPRLPRPRPRPTMNPRP | -0.225
133 | RRIRQRPPRLPRPRPRPRNWPRP | -0.0692
134 | RRIRRRPPRLPRPRPRPKAHPRP | 0.515
135 | RRIRERPPRLPRPRPRPHHMPRP | -0.381
136 | RRIRKRPPRLPRPRPRPRKSPRP | 0.727
137 | RRIRLRPPRLPRPRPRPEPMPRP | -0.0888
138 | RRIRSRPPRLPRPRPRPTRCPRP | 0.264
139 | RRIRVRPPRLPRPRPRPDMHPRP | -0.107
140 | RRIRHRPPRLPRPRPRPFVCPRP | -0.453
141 | RRIRDRPPRLPRPRPRPRDAPRP | 0.59
142 | RRIRLRPPRLPRPRPRPTRKPRP | 0.374
143 | RRIRDRPPRLPRPRPRPAMEPRP | -0.0517
144 | RRIRQRPPRLPRPRPRPQSFPRP | -0.0179
145 | RRIRHRPPRLPRPRPRPHIMPRP | -0.63
146 | RRIRERPPRLPRPRPRPAIAPRP | 0.0488
147 | RRIRWRPPRLPRPRPRPVKGPRP | -0.0905
148 | RRIRLRPPRLPRPRPRPNNYPRP | -0.577
149 | RRIRIRPPRLPRPRPRPTPDPRP | -0.0173
150 | RRIRCRPPRLPRPRPRPVRVPRP | 0.272
